Experiments:
[1] = Substrate specificities of KAZ mutants (ZZ-fused, crude enzyme), bis-CTZ; type: biochemical; conditions: 1 μg substrate; for Relative Luminescence Activity bis-CTZ Int.: integrated for 60 seconds; for Relative Luminescence Activity bis-CTZ Imax: maximum intensity of luminescence
Protocol: The coelenterazine analogues used for substrate specificity studies were synthesized by the methods described in publications. Specifically, bis-coelenterazine was synthesized by the method described in Nakamura et al. (1997) Tetrahedron Lett. 38: 6405-6406; furimazine by the method described in Hall et al. (2012) ACS Chem. Biol. […]; and, 6h-coelenterazine, f-coelenterazine and 6h-f-coelenterazine by the methods described in Inouye et al (2013) Biochem. Biophys. Res. Commun. 437: 23-28.
DTT was added to the crude enzyme solutions obtained in EXAMPLE 17 at a final concentration of 1 mM and the mixtures were allowed to stand in an ice water for more than 5 hours in the same manner as Example 8. A luminescence reaction was started by the addition of 1 μL each of the crude enzyme solutions to 100 μL of TE containing 1 μg of coelenterazine (manufactured by JNC Corp.) or its analogues. The luminescence activities were determined using a luminometer (manufactured by Atto Inc.: AB2200) for 60 seconds, and the maximum intensity of luminescence (Imax) was shown as relative luminescence activity.

[2] = Luminescence activity of ZZ-fused KAZ mutants in crude enzyme solutions; type: biochemical; conditions: for Relative Luminescence Activity (Imax): ZZ-fused (pCold-ZZ-P-), 1 mM DTT; for Luminescence activity, times higher than that of wild KAZ: coelenterazine (Table 4); for Luminescence activity, fold higher than dnKAZ / Luminescence activity, fold higher than wild KAZ: coelenterazine (Table 9)
Protocol: To express the ZZ-fused KAZ mutants in E. coli, the recombinant plasmid prepared in EXAMPLE 6 was used. Crude enzyme solutions were prepared in the same manner as EXAMPLE 4 using the E. coli BL21 strain (Novagen, Madison, Wis.) as a host cell. The resultant crude enzyme solution, 5 μL, was subjected to SDS-PAGE analysis to confirm expression of the proteins (FIG. 2). In FIG. 2, M and 1 to 18 are the same as described in FIG. 1.
DTT was added to the crude enzyme solution obtained in EXAMPLE 7 at a final concentration of 1 mM and the mixture was allowed to stand in an ice water for more than 5 hours. A luminescence reaction was started by adding 1 μL of the crude enzyme solution to 100 μL of TE containing 1 μg of coelenterazine (manufactured by JNC Corp.). The luminescence activity was determined using a luminometer (manufactured by Atto Inc.: AB2200) for 60 seconds, and the maximum intensity of luminescence (Imax) was shown as relative luminescence activity.
To express the ZZ-fused KAZ mutants in E. coli, the recombinant plasmid constructed in EXAMPLE 16 and pCold-ZZ-P-V44I-KAZ, pCold-ZZ-P-A54I-KAZ, pCold-ZZ-P-Y138I-KAZ prepared in EXAMPLE 6 were used. Crude enzyme solutions were prepared in the same manner as EXAMPLE 7, using the E. coli BL21 strain (Novagen, Madison, Wis.) as a host cell. DTT was added to the crude enzyme solutions at a final concentration of 1 mM. The mixtures were allowed to stand over 5 hours on ice, and luminescence activities were then assayed. The luminescence activities were determined by the method described in EXAMPLE 8. Also, 5 μL of the resultant crude enzyme solutions were subjected to SDS-PAGE analysis to confirm protein expression (FIG. 4). In FIG. 4, M and 1 to 9 are as follows. M: molecular weight size markers; 1: ZZ-P-KAZ; 2: ZZ-P-KAZ-V44I; 3: ZZ-P-KAZ-A54I; 4: ZZ-P-KAZ-Y138I; 5: ZZ-P-KAZ-V44I-A54I; 6: ZZ-P-KAZ-V44I-Y138I; 7: ZZ-P-KAZ-A54I-Y138I; 8: ZZ-P-KAZ-V44I-A54I-Y138I; and 9: ZZ-P-dnKAZ.

[3] = Table 4, 1 μL crude enzyme solution, 1 μg coelenterazine
[4] = Table 9, crude enzyme solution, coelenterazine
[5] = ZZ-fused, crude enzyme solution

Molecule	Relative Luminescence Activity bis-CTZ Int. [1]	Relative Luminescence Activity bis-CTZ Imax [1]	Relative Luminescence Activity (Imax) [2, 3]	Relative Luminescence Activity (Imax) [2, 4]	Luminescence activity compared with dnKAZ ([2]; ZZ-fused, crude enzyme solution, coelenterazine)	Luminescence activity, times higher than that of wild KAZ [2, 5]	Luminescence activity, fold higher than dnKAZ [2, 5]	Luminescence activity, fold higher than wild KAZ [2, 5]
KAZ-A54I: KAZ with single amino acid substitution A54I, SEQ ID NO: 6 (protein) FTLADFVGDWQQTAGYNQDQVLEQGGLSSLFQALGVSVTPIQKVVLSGENGLKIDIHVIIPYEGLSGFQMGLIEMIFKVVYPVDDHHFKIILHYGTLVIDGVTPNMIDYFGRPYPGIAVFDGKQITVTGTLWNGNKIYDERLINPDGSLLFRVTINGVTGWRLCENILA	3.4	3.0	8.9	8.4	comparable to dnKAZ	8.9 times		
KAZ-A54I-Y138I: KAZ mutant with two amino acid substitutions A54I and Y138I, SEQ ID NO: 14 (protein) FTLADFVGDWQQTAGYNQDQVLEQGGLSSLFQALGVSVTPIQKVVLSGENGLKIDIHVIIPYEGLSGFQMGLIEMIFKVVYPVDDHHFKIILHYGTLVIDGVTPNMIDYFGRPYPGIAVFDGKQITVTGTLWNGNKIIDERLINPDGSLLFRVTINGVTGWRLCENILA	9.2	9.5		23.1			2.5 fold	23 fold
KAZ-V44I-A54I-Y138I: KAZ mutant with three amino acid substitutions V44I, A54I and Y138I, SEQ ID NO: 16 (protein) FTLADFVGDWQQTAGYNQDQVLEQGGLSSLFQALGVSVTPIQKIVLSGENGLKIDIHVIIPYEGLSGFQMGLIEMIFKVVYPVDDHHFKIILHYGTLVIDGVTPNMIDYFGRPYPGIAVFDGKQITVTGTLWNGNKIIDERLINPDGSLLFRVTINGVTGWRLCENILA	11.9	13.3		66.7			7.1 fold	67 fold
KAZ-V44I-Y138I: KAZ mutant with two amino acid substitutions V44I and Y138I, SEQ ID NO: 12 (protein) FTLADFVGDWQQTAGYNQDQVLEQGGLSSLFQALGVSVTPIQKIVLSGENGLKADIHVIIPYEGLSGFQMGLIEMIFKVVYPVDDHHFKIILHYGTLVIDGVTPNMIDYFGRPYPGIAVFDGKQITVTGTLWNGNKIIDERLINPDGSLLFRVTINGVTGWRLCENILA	8.3	7.9		17.1			1.8 fold	17 fold
KAZ-V44I: KAZ with single amino acid substitution V44I, SEQ ID NO: 4 (protein) FTLADFVGDWQQTAGYNQDQVLEQGGLSSLFQALGVSVTPIQKIVLSGENGLKADIHVIIPYEGLSGFQMGLIEMIFKVVYPVDDHHFKIILHYGTLVIDGVTPNMIDYFGRPYPGIAVFDGKQITVTGTLWNGNKIYDERLINPDGSLLFRVTINGVTGWRLCENILA	1.4	1.1	6.6	7.2		6.6 times		

Next, values leading:

Relative Luminescence Activity bis-CTZ Int. [1]	Relative Luminescence Activity bis-CTZ Imax [1]	Relative Luminescence Activity (Imax) [2, 3]	Relative Luminescence Activity (Imax) [2, 4]	Luminescence activity compared with dnKAZ ([2]; ZZ-fused, crude enzyme solution, coelenterazine)	Luminescence activity, times higher than that of wild KAZ [2, 5]	Luminescence activity, fold higher than dnKAZ [2, 5]	Luminescence activity, fold higher than wild KAZ [2, 5]	Molecule
0.9	0.6	1.0	1.0					KAZ: wild 19 kDa catalytic protein of Oplophorus luciferase (19kOLase), amino acid sequence SEQ ID NO: 2 (protein, listed as Oplophorus gracilirostris) FTLADFVGDWQQTAGYNQDQVLEQGGLSSLFQALGVSVTPIQKVVLSGENGLKADIHVIIPYEGLSGFQMGLIEMIFKVVYPVDDHHFKIILHYGTLVIDGVTPNMIDYFGRPYPGIAVFDGKQITVTGTLWNGNKIYDERLINPDGSLLFRVTINGVTGWRLCENILA
5.9	5.7		15.3			1.6 fold	15 fold	KAZ-V44I-A54I: KAZ mutant with two amino acid substitutions V44I and A54I, SEQ ID NO: 10 (protein) FTLADFVGDWQQTAGYNQDQVLEQGGLSSLFQALGVSVTPIQKIVLSGENGLKIDIHVIIPYEGLSGFQMGLIEMIFKVVYPVDDHHFKIILHYGTLVIDGVTPNMIDYFGRPYPGIAVFDGKQITVTGTLWNGNKIYDERLINPDGSLLFRVTINGVTGWRLCENILA
1.5	1.3	5.9	7.5		5.9 times			KAZ-Y138I: KAZ with single amino acid substitution Y138I, SEQ ID NO: 8 (protein) FTLADFVGDWQQTAGYNQDQVLEQGGLSSLFQALGVSVTPIQKVVLSGENGLKADIHVIIPYEGLSGFQMGLIEMIFKVVYPVDDHHFKIILHYGTLVIDGVTPNMIDYFGRPYPGIAVFDGKQITVTGTLWNGNKIIDERLINPDGSLLFRVTINGVTGWRLCENILA
